Laboratory results as given in US20060211624A1, “Methods and compositions for the treatment of parkinson's disease and other alpha-synucleinopathies” (Goverment of the US, as Represented by, priority 2003, published 2006).

Biological target: purified recombinant human α-synuclein protein, P37840

B1: purified guinea pig liver tTGase (protein)
chain: AEDLILERCDLQLEVNGRDHRTADLCRERLVLRRGQPFWLTLHFEGRGYEAGVDTLTFNAVTGPDPSEEAGTMARFSLSSAVEGGTWSASAVDQQDSTVSLLLSTPADAPIGLYRLSLEASTGYQGSSFVLGHFILLYNPRCPADAVYMDSDQERQEYVLTQQGFIYQGSAKFINGIPWNFGQFEDGILDICLMLLDTNPKFLKNAGQDCSRRSRPVYVGRVVSAMVNCNDDQGVLQGRWDNNYSDGVSPMSWIGSVDILRRWKDYGCQRVKYGQCWVFAAVACTVLRCLGIPTRVVTNFNSAHDQNSNLLIEYFRNESGEIEGNKSEMIWNFHCWVESWMTRPDLEPGYEGWQALDPTPQEKSEGTYCCGPVPVRAIKEGHLNVKYDAPFVFAEVNADVVNWIRQKDGSLRKSINHLVVGLKISTKSVGRDEREDITHTYKYPEGSEEEREAFVRANHLNKLATKEEAQEETGVAMRIRVGQNMTMGSDFDIFAYITNGTAESHECQLLLCARIVSYNGVLGPVCSTNDLLNLTLDPFSENSIPLHILYEKYGDYLTESNLIKVRGLLIEPAANSYVLAERDIYLENPEIKIRVLGEPKQNRKLIAEVSLKNPLPVPLLGCIFTVEGAGLTKDQKSVEVPDPVEAGEQAKVRVDLLPTEVGLHKLVVNFECDKLKAVKGYRNVIIGPA
  formation of high molecular weight aggregates of α-synuclein (in vitro cross-linking reaction, SDS/PAGE and Western blot): In the presence of DTT, the reduced form of tTGase induced the formation of high molecular weight aggregates of α-synuclein
